8 sequences from PMC7865891 can be followed below.

The test system of data set [1] is β-conglutin (lupin (species not stated)). In words: MST. Particulars: 0.05% Tween-20, 25 C, Hill EC50 fit, PBS (10 mM phosphate, 135 mM NaCl, 2.7 mM KCl, pH 7.4) + 1.5 mM MgCl2, MST +0.05% Tween-20, 25 C (20 mM KCl for TT derivatives), BLI +0.1% Tween-20, 30 C, SPR ….
For data set [2] the test system is unchanged. In words: SPR. The following applies: 1:1 kinetic model, protein immobilized, PBS (10 mM phosphate, 135 mM NaCl, 2.7 mM KCl, pH 7.4) + 1.5 mM MgCl2, MST +0.05% Tween-20, 25 C (20 mM KCl for TT derivatives), BLI +0.1% Tween-20, 30 C.
Data set [3] has the same test system. In words: BLI. Particulars: 2:1 heterogeneous model, 30 C, 0.1% Tween-20, 5' TEG spacer, PBS (10 mM phosphate, 135 mM NaCl, 2.7 mM KCl, pH 7.4) + 1.5 mM MgCl2, MST +0.05% Tween-20, 25 C (20 mM KCl for TT derivatives), BLI +0.1% Tween-20, 30 C, SPR ….

On to GGTGGGGGTGG [Cy5-11-mer], for which the Kd in data set [1] (binding buffer) was determined as 1.05 nM.

Consider GGTGGGGGTGGTT [11-mer-TT], for which the Kd in data set [2] stood at 84.9 nM.

Take GGTGGGGGTGGTT [Cy5-11-mer-TT]: in data set [1] (20 mM KCl), the Kd worked out at 2.59 nM.

In the case of TTGGTGGGGGTGG [Cy5-TT-11-mer], in data set [1] (20 mM KCl), the Kd came out at 1.88 nM.

TTGGTGGGGGTGG [TT-11-mer]: the Kd in data set [2] was found to be 7.28 nM.

As for TTGGTGGGGGTGGTT [Cy5-TT-11-mer-TT], the Kd in data set [1] (20 mM KCl) was 2.71 nM.

Turning to TTGGTGGGGGTGGTT [TT-11-mer-TT], the Kd in data set [2] was 53.7 nM.

Turning to “TTTTTTTTTTTTTTTGGTGGGGGTGG [Biotin-TEG-T15-11-mer]”, the Kd in data set [3] (first KD) came out at 6.95 nM; in data set [3] (second KD), 23.3 nM.

What is called Kd is the constant that tells how readily two partners part at equilibrium.
